Legend:
[1] = biological target: T1, POTH1 in pBridge (full-length POTH1 fused with the GAL4 DNA-binding domain) (Solanum tuberosum); test: quantitative yeast two-hybrid beta-galactosidase assay
T1 construct: Bait of the yeast two-hybrid screen and partner of the StBEL-05 deletion constructs; also called pBHD; pBridge:POTH1
Source text: (§1) The Matchmaker two-hybrid system (Clontech, Calif.) was used for the yeast two-hybrid screen. Yeast transformation and plasmid rescue into DH5-α *E. coli* cells were according to the manufacturer's instructions. Full-length POTH1 was cloned into the pBridge (Clontech, Calif.) vector and used as bait to screen the potato (*S. tuberosum* 'Desireé') stolon cDNA library in pAD-GAL4-2.1 (Stratagene, Calif.). Positive interactions were confirmed by cotransforming yeast strain AH109 with each purified pAD plasmid and pBridge: POTH1 and plating on -leucine/-tryptophan (transformation control) and -leucine/-tryptophan/-histidine/-adenine (selection) nutrient medium. Induction of the AH109 reporter gene, lacZ, was measured with a yeast β-galactosidase assay kit (Pierce Chemicals). β-galactosidase activity (FIG. 9B) was determined from a known density of yeast cells and calculated as 1000 ×OD420/time of color reaction (minutes)×volume of yeast culture (ml)×$OD600$.
The StBEL-05 deletion constructs were amplified by PCR, then cloned into the vector, pGAD, in-frame with the GAL4 activation domain. POTH1 deletion constructs were amplified by PCR, and cloned into pBridge (Clontech) in-frame with the GAL4 binding domain. Sequencing of selected cDNAs and constructs was performed at the Iowa State University DNA Facility. […]

[2] = biological target: T2, StBEL-05 protein from pGEM11Z (in vitro transcription/translation) (Solanum tuberosum); test: in vitro binding protocol (pull-down)
T2 construct: 35S-methionine labelled prey; also called p11Z-5
T2 chain: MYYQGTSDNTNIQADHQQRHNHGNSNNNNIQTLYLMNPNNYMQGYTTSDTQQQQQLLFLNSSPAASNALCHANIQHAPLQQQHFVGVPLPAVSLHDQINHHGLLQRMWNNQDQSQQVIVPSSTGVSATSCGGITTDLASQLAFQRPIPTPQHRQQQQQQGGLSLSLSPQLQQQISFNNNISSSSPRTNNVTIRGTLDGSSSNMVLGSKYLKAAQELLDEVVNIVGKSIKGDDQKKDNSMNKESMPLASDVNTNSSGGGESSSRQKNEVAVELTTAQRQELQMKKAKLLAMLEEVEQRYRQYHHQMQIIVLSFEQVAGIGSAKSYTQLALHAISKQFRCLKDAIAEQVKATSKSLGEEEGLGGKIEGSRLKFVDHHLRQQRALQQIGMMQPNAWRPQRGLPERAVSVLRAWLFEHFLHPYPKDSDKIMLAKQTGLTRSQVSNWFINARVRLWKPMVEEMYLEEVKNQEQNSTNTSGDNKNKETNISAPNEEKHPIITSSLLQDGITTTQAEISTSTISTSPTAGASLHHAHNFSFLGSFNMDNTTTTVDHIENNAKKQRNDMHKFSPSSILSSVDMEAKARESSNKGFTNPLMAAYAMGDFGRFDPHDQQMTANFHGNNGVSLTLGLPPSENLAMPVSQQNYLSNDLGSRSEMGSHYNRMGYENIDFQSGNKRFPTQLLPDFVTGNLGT
Experimental: (§2) In vitro binding experiments were performed as described by Ni et al., "PIF3, a Phytochrome-Interacting Factor Necessary for Normal Photoinduced Signal Transduction, is a Novel Basic *Helix*-Loop-Helix Protein," *Cell* 95:657-667 (1998), which is hereby incorporated by reference in its entirety. The full-length sequence for POTH1 was cloned into a pET17b/GAD fusion cassette and transcribed under the control of the T7 promoter. The BEL cDNAs were cloned into pGEM11Z vectors and were transcribed under the control of the T7 promoter. ^35S-methionine labeled bait and prey proteins were synthesized using the TnT in vitro transcription-translation kit (Promega) according to the manufacturer's protocols. Each 50 μl TnT reaction contained 2.0 μg of template plasmid DNA and 20 μmol (20 μCi) of labeled ^35S-methionine. The POTH1:GAD/BEL complex was immunoprecipitated with anti-GAD antibodies (Santa Cruz Biotechnology, Calif.). The proteins from the pellet (one-half the fraction) and for the prey (one-fourth of the reaction volume) were resolved on a 10% SDS-PAGE gel and visualized by autoradiography.

POTH1 [3] = test: In vitro binding assay (immunoprecipitation) with POTH1; design: species or system Solanum tuberosum; details: in vitro transcription/translation, anti-GAD
Experimental: In vitro binding experiments were performed as described by Ni et al., “PIF3, a Phytochrome-Interacting Factor Necessary for Normal Photoinduced Signal Transduction, is a Novel Basic Helix-Loop-Helix Protein,” Cell 95:657-667 (1998), which is hereby incorporated by reference in its entirety. The full-length sequence for POTH1 was cloned into a pET17b/GAD fusion cassette and transcribed under the control of the T7 promoter. […] Each 50 μl TnT reaction contained 2.0 μg of template plasmid DNA and 20 μmol (20 μCi) of labeled ^35S-methionine. The POTH1:GAD/BEL complex was immunoprecipitated with anti-GAD antibodies (Santa Cruz Biotechnology, Calif.). The proteins from the pellet (one-half the fraction) and for the prey (one-fourth of the reaction volume) were resolved on a 10% SDS-PAGE gel and visualized by autoradiography.

GAD:POTH1 fusion protein [4] = biological target: T3, GAD:POTH1 fusion protein (Solanum tuberosum); test: in vitro transcription/translation, immunoprecipitation assay
T3 construct: 35S-methionine labelled, made by in vitro transcription/translation for the immunoprecipitation; also called POTH1:GAD
T3 chain: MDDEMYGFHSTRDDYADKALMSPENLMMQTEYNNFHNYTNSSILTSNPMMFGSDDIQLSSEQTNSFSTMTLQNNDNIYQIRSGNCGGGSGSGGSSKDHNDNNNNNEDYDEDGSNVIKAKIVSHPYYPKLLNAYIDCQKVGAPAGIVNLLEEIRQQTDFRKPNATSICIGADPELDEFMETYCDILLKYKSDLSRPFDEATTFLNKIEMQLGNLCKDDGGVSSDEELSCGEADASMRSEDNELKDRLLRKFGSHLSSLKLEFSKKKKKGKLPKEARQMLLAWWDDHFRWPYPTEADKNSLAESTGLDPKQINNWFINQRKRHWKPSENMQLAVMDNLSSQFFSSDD
Experimental: as §2

POTH1 [5] = test: Yeast two-hybrid interaction with POTH1; assay type: binding, Solanum tuberosum; details: nutritional selection and lacZ activation, yeast AH109
Source text: as §1, with “E. coli” for “*E. coli*”, “(S. tuberosum ‘Desireé’)” for “(*S. tuberosum* 'Desireé')”, “1000×OD420/time” for “1000 ×OD420/time”, “(ml)×OD600.” for “(ml)×$OD600$.”
The StBEL-05 deletion constructs were amplified by PCR, then cloned into the vector, pGAD, in-frame with the GAL4 activation domain. POTH1 deletion constructs were amplified by PCR, and cloned into pBridge (Clontech) in-frame with the GAL4 binding domain. Sequencing of selected cDNAs and constructs was performed at the Iowa State University DNA Facility. For deletion analysis, modified constructs of POTH1 were cloned into the pBridge vector for fusion with the DNA-binding domain of GAL4 (FIG. 10A). For StBEL-05, constructs were cloned into the pGAD vector for fusion with the activating domain of GAL4 (FIG. 10B). Deletion constructs were made from both the amino and carboxy termini. These mutants were then tested for interaction in the yeast two-hybrid system by cotransforming into yeast strain AH109 with the corresponding full-length partner (StBEL-05 in pGAL4 or POTH1 in pBridge). All constructs were sequenced to verify that they were in-frame. Positive interactions were verified for lacZ induction by using a β-galactosidase assay (Pierce Chemical Company). For POTH1, seven deletion constructs were tested (FIG. 10A). For the BEL TFs, a fusion construct of StBEL-05 (653 aa of StBEL-05 sequence) and nine deletion constructs were tested (FIG. 10B).

GAD protein alone = biological target: T4, GAD protein alone (UniProt P04386 768-881, limits assumed); test: in vitro translated 35S-labelled proteins, immunoprecipitation with anti-GAD antibodies
T4 construct: Control of the immunoprecipitation
T4 sequence (looked up): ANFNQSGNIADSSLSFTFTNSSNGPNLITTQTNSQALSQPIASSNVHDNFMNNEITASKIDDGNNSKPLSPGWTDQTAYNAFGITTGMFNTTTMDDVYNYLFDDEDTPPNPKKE
Experimental: as §2

GAD:POTH1 fusion protein [6] = biological target: T3, GAD:POTH1 fusion protein; test: in vitro translated 35S-labelled proteins, co-immunoprecipitation with anti-GAD antibodies, SDS-PAGE autoradiography
Experimental: as §2

B1: pAD5-1 (StBEL-05 deletion construct in pGAD) (other, not shown: small tags and cut ends)
chain: KNEVAVELTTAQRQELQMKKAKLLAMLEEVEQRYRQYHHQMQIIVLSFEQVAGIGSAKSYTQLALHAISKQFRCLKDAIAEQVKATSKSLGEEEGLGGKIEGSRLKFVDHHLRQQRALQQIGMMQPNAWRPQRGLPERAVSVLRAWLFEHFLHPYPKDSDKIMLAKQTGLTRSQVSNWFINARVRLWKPMVEEMYLEEVKNQEQNSTNTSGDNKNKETNISAPNEEKHPIITSSLLQDGITTTQAEISTSTISTSPTAGASLHHAHNFSFLGSFNMDNTTTTVDHIENNAKKQRNDMHKFSPSSILSSVDMEAKARESSNKGFTNPLMAAYAMGDFGRFDPHDQQMTANFHGNNGVSLTLGLPPSENLAMPVSQQNYLSNDLGSRSEMGSHYNRMGYENIDFQSGNKRFPTQLLPDFVTGNLGT
notes: Lacks the SKY box; residues converted from pAD-05 numbering
[1]
  decrease in the induction of the lacZ marker (beta-galactosidase activity) relative to the full-length construct, StBEL-05: 55%

B2: pBHD9 construct as used in the in vitro binding protocol (other)
chain: MDDEMYGFHSTRDDYADKALMSPENLMMQTEYNNFHNYTNSSILTSNPMMFGSDDIQLSSEQTNSFSTMTLQNNDNIYQIRSGNCGGGSGSGGSSKDHNDNNNNNEDYDEDGSN
[2]
  binding result: no binding

B3: StBEL-13 protein from pGEM11Z (in vitro transcription/translation) (other)
chain: MVMGGGASSQQLGYAKNHTPNVAESMQLFLMNPQPRSPSPSPPNSTSSTLHMLLPNPSSTSTLQGFPNPAEGSFGQFITWGNGGASAATATHHLNAQNEIGGVNVVESQGLSLSLSSSLQHKAEELQMSGEAGGMMFFNQGGSSTSGQYRYKNLNMGGSGVSPNIHQVHVGYGSSLGVVNVLRNSKYAKAAQELLEEFCSVGRGKLKKTNNKAAANNPNTNPSGANNEASSKDVPTLSAADRIEHQRRKVKLLSMVDEVDRRYNHYCEQMQMVVNSFDLVMGFGTAVPYTALAQKAMSRHFRCLKDAIGAQLKQSCELLGEKDAGNSGLTKGETPRLKMLEQSLRQQRAFHQMGMMEQEAWRPQRGLPERSVNILRAWLFEHFLHPYPSDADKHLLARQTGLSRNQVSNWFINARVRLWKPMVEDMYQQEAKDEDGDGDEKSQSQNSGNNIIAQTPTPNSLTNTSSTNMTTTTAPTTTTALAAAETGTAATPITVTSSKRSQINATDSDPSLVAINSFSENQATFPTNIHDPDDCRRGNLSGDDGTTTHDHMGSTMIRFGTTAGDVSLTLGLRHAGNLPENTHFFG
notes: 35S-methionine labelled prey; also called p11Z-13
POTH1 [3]
  pull-down by POTH1 in immunoprecipitation: pulled down
GAD:POTH1 fusion protein [4]
  binding result: binds
POTH1 [5]
  interaction with POTH1: showed selective interaction
GAD protein alone
  binding result: no binding

B4: StBEL-30 protein from pGEM11Z (in vitro transcription/translation) (other)
chain: MATYFPSPNNQRDADQTFQYFRQSLPESYSEASNAPENMMVFMNYSSSGAYSDMLTGTSQQQHNCIDIPSIGATPFNTSQQEILSNLGGSQMGIQDFSSWRDSRNEMLADNVFQVAQNVQGQGLSLSLGSNIPSGIGISHVQSQNPNQGGGFNMSFGDGDNSQPKEQRNADYFPPDNPGRDLDAMKGYNSPYGTSSIARTIPSSKYLKAAQYLLDEVVSVRKAIKEQNSKKELTKDSRESDVDSKNISSDTPANGGSNPHESKNNQSELSPTEKQEVQNKLAKLLSMLDEIDRRYRQYYHQMQIVVSSFDVVAGEGAAKPYTALALQTISRHFRCLRDAICDQIRASRRSLGEQDASENSKAIGISRLRFVDHHIRQQRALQQLGMMQQHAWRPQRGLPESSVSVLRAWLFEHFLHPYPKDSDKIMLARQTGLTRSQVSNWFINARVRLWKPMVEEMYKEEAGDAKIDSNSSSDVAPRLATKDSKVEERGELHQNAASEFEQYNSGQILESKSNHEADVEMEGASNAETQSQSGMENQTGEPLPAMDNCTLFQDAFVQSNDRFSEFGSFGSGNVLPNGVSLTLGLQQGEGSNLPMSIETHVSYVPLRADDMYSTAPTTMVPETAEFNCLDSGNRQQPFWLLPSAT
notes: 35S-methionine labelled prey; also called p11Z-30
POTH1 [3]
  pull-down by POTH1 in immunoprecipitation: pulled down
GAD:POTH1 fusion protein [6]
  binding result: binds
POTH1 [5]
  interaction with POTH1: showed selective interaction
GAD protein alone
  binding result: no binding
